Measurements: patent publication US12134788B2, “Engineered prephenate dehydrogenases and arogenate dehydrogenases and methods of using the same” (Wisconsin Alumni Research Foundation, priority 2017, dated 2024)
Changes are numbered by the printed parent chain. Numbers in names are those of the source.

Tests used:
[1] = PDH assay: steady-state kinetics of purified recombinant plant enzymes with prephenate; assay type: biochemical; details: prephenate versus arogenate, NADP+ cofactor
From the text: As used herein, a polypeptide may “have greater arogenate dehydrogenase activity than prephenate dehydrogenase activity” or “have greater prephenate dehydrogenase activity than arogenate dehydrogenase activity” when the steady-state kinetic parameters (kcat/Km (mM^−1s^−1)) for arogenate dehydrogenase activity are greater than the steady-state parameters (kcat/Km (mM^−1s^−1)) for prephenate dehydrogenase activity or when the steady-state kinetic parameters (kcat/Km (mM^−1s^−1)) for prephenate dehydrogenase activity are greater than the steady-state parameters (kcat/Km (mM^−1s^−1)) for arogenate dehydrogenase activity. Steady-state kinetic parameters may be measured using techniques similar to those described by the inventors in the Examples. Briefly, kinetic parameters of purified polypeptides can be determined from assays conducted at varying arogenate and prephenate concentrations. Standard assay conditions include 25 mM HEPES pH 7.6, 50 mM KCl and 10% (v/v) ethylene glycol, and 0.5 mM NADP^+ with varied substrate, concentrations. Reactions can be initiated by the addition of the polypeptide and incubated at 37° C. monitored every 10-15 seconds at A340nm using a microplate reader. Kinetic parameters may be determined by fitting initial velocity data to the Michaelis-Menten equation using the Origin software.
(§1) Kinetic parameters of purified recombinant proteins were determined from assays conducted at varying arogenate (19.5 μM-5 mM) and prephenate concentration (23.4 μM-6 mM). Standard assay conditions were 25 mM HEPES pH 7.6, 50 mM KCl and 10% (v/v) ethylene glycol, and 0.5 mM NADP^+ with varied substrate, concentrations. Reactions were initiated by addition of enzyme and incubated at 37° C. monitored every 10-15 seconds at […] using a microplate reader (Tecan Genios). Kinetic parameters were determined by fitting initial velocity data to the Michaelis-Menten equation using the Origin software (OriginLab).

[2] = Tyr inhibition assay of ADH activity (arogenate substrate); assay type: biochemical; details: Tyr up to 8 mM
Procedure: (§2) Arogenate was prepared by enzymatic conversion of prephenate (Sigma-Aldrich) as previously reported^56. For Tyr inhibition assays, Tyr was dissolved in a slightly basic solution (0.025 N NaOH) due to solubility issues, thus the concentration of lysis buffer was increased to 500 mM HEPES final concentration to buffer against the changes by addition of Tyr in the reaction. Reactions containing varying amounts of Tyr (10 μM-8 mM) with 0.5 mM NADP^+ and either 1 mM arogenate or 0.8 mM prephenate were monitored as above.

[3] = substrate: N[C@@H](CC1(C(=O)O)C=CC(O)C=C1)C(=O)O; test: ADH and PDH assay: steady-state kinetics and Tyr inhibition, GmPDH1 N222D; assay type: biochemical, Glycine max (soybean); details: other: 0.5 mM NADP^+, pH 7.6, 37° C.
Procedure: as §1, §2

[4] = substrate: O=C(O)C(=O)CC1(C(=O)O)C=CC(O)C=C1; test: as above; assay type: biochemical, Glycine max (soybean); details: other: 0.5 mM NADP^+, pH 7.6, 37° C.
Procedure: as §1, §2

[5] = substrate: N[C@@H](CC1(C(=O)O)C=CC(O)C=C1)C(=O)O; test: ADH and PDH assay: steady-state kinetics and Tyr inhibition, GmPDH1 M219T; assay type: biochemical, Glycine max (soybean); details: other: 0.5 mM NADP^+, pH 7.6, 37° C.
Procedure: as §1, §2

[6] = substrate: O=C(O)C(=O)CC1(C(=O)O)C=CC(O)C=C1; test: as above; assay type: biochemical, Glycine max (soybean); details: other: 0.5 mM NADP^+, pH 7.6, 37° C.
Procedure: as §1, §2

[7] = substrate: N[C@@H](CC1(C(=O)O)C=CC(O)C=C1)C(=O)O; test: ADH and PDH assay: steady-state kinetics and Tyr inhibition, SolyncADH D224N; assay type: biochemical, Solanum lycopersicum (tomato); details: other: 0.5 mM NADP^+, pH 7.6, 37° C.
Procedure: as §1, §2

[8] = substrate: O=C(O)C(=O)CC1(C(=O)O)C=CC(O)C=C1; test: as above; assay type: biochemical, Solanum lycopersicum (tomato); details: other: 0.5 mM NADP^+, pH 7.6, 37° C.
Procedure: as §1, §2

B1: AtADH2 D241N: site-directed mutant of Arabidopsis canonical ADH, Asp241 to Asn (protein)
chain: MLLHFSPAKPLISPPNLRRNSPTFLISPPRSLRIRAIDAAQIFDYETQLKSEYRKSSALKIAVLGFGNFGQFLSKTLIRHGHDLITHSRSDYSDAANSIGARFFDNPHDLCEQHPDVVLLCTSILSTESVLRSFPFQRLRRSTLFVDVLSVKEFPKALFIKYLPKEFDILCTHPMFGPESGKHSWSGLPFVYDKVRIGDAASRQERCEKFLRIFENEGCKMVEMSCEKHDYYAAGSQFVTHTMGRVLEKYGVESSPINTKGYETLLDLVENTSSNSFELFYGLFMYNPNALEQLERLDMAFESVKKELFGRLHQQYRKQMFGGEVQSPKKTEQKLLNDGGVVPMNDISSSSSSSSSSS
modifications: Synthetic: AtADH2 D241N
notes: site-directed mutant of Arabidopsis canonical ADH, Asp241 to Asn
With B1 as the molecule, how does the “substrate specificity: PDH versus ADH activity (in words)” value [1] read?
The value was “gained PDH activity at the expense of ADH activity”.

And the “feedback inhibition by Tyr (in words)” value [2]?
Its value is “significantly less sensitive to Tyr inhibition than the respective wild-type enzymes”.

B2: Glycine max GmPDH1 variant N222D, SEQ ID NO: 2 (Glycine max; N222D) (protein)
chain: MSTSSSSQSLKIGIVGFGNFGQFLAKTMIKQGHTLTATSRSDYSELCLQMGIHFFRDVSAFLTADIDVIVLCTSILSLSEVVGSMPLTSLKRPTLFVDVLSVKEHPRELLLRELPEDSDILCTHPMFGPQTAKNGWTDHTFMYDKVRIRDEVICSNFIQIFATEGCKMVQMSCEEHDRAAAKSQFITHTIGRTLGEMDIQSTPIDTKGFETLVKLKETMMRDSFDLYSGLFVYNRFARQELENLEHALHKVKETLMIQRTNGEQGHKRTES
Which results are given for B2?
Km [3]: 0.53 ± 0.18 mM; kcat [3]: 27.8 ± 3.5 s⁻¹; kcat/Km [3]: 52400 M⁻¹ s⁻¹; Km [4]: 7.58 ± 1.13 mM; kcat [4]: 19.1 ± 1.4 s⁻¹; kcat/Km [4]: 2520 M⁻¹ s⁻¹

B3: Glycine max GmPDH1 variant M219T (Glycine max; M219T) (protein)
chain: B2 chain with M219T, D222N
Which results are given for B3?
Km [5]: 1.55 ± 0.14 mM; kcat [5]: 4.6 ± 0.3 s⁻¹; kcat/Km [5]: 2970 M⁻¹ s⁻¹; Km [6]: 0.10 ± 0.02 mM; kcat [6]: 30.3 ± 0.8 s⁻¹; kcat/Km [6]: 303000 M⁻¹ s⁻¹

B4: MtncADH D220C: site-directed mutant of M. truncatula noncanonical ADH, Asp220 to Cys (protein)
chain: MSNSPSLKIGIVGFGSFGQFLAKTMIKQGHTLTATSRTDYSHTCLQLGIQFFRDVGTFIEANNDVILICTSIMSFTKVLSSMPLACLKKPTTLFVDVLSVKEHPREVLLRVLPEESDILCTHPMFGPESGKNGWKDLNFMYDKVRIHDEATCSNFLHIFASEGCKMLQMSCEEHDKIAAKSQFITHTIGRTLAEMDIESTPIDTKGFQTLTQLKNTTMRCSFDLYSGLFVHNRFAKQELENLQRALDRVKEMLVQRMREELGPEKD
modifications: Synthetic: MtncADH D220C
notes: site-directed mutant of M. truncatula noncanonical ADH, Asp220 to Cys
For B4, which “substrate specificity: PDH versus ADH activity (in words)” value [1] is on record?
The value was “reduced ADH activity and enhanced PDH activity”.

What about the “feedback inhibition by Tyr (in words)” value [2] of the same molecule?
The value was “significantly less sensitive to Tyr inhibition than the respective wild-type enzymes”.

B5: GmncADH: noncanonical arogenate dehydrogenase from soybean, wild-type (protein)
chain: MSTWSLKIGVVGFGSFGQFLAKTMIKQGHTLRATSRTDYSLLCLPMGIQFFRDVAAFLEADNDVILVCTSILSLSEVLSSMPLTCLKRSTLFVDVLSVKEHPRNLLIKVLPEESDILCTHPMFGPDSGKDGWQDLTFVYDKVRIRDEAICSSFLHIFASEGCRMLQMSCEEHDKIAAKSQFITHTIGRTLAEMDIKSTPIDTKGFHSLVQLKDTTIRDSFDLYSGLFLHNRFAVQELENLEHALHKVKEMLVQRKSEELGLEKTEC
modifications: GmncADH WT
notes: noncanonical arogenate dehydrogenase from soybean, wild-type
Which “substrate specificity: PDH versus ADH activity (in words)” value [1] does the source give for B5 here?
The value was “only displayed activity with arogenate”.

What about the “feedback inhibition by Tyr (in words)” value [2] of the same molecule?
Its value is “sensitive to Tyr but with IC50 values in the mM range”.

B6: Solanum lycopersicum SolyncADH variant D224N (Solanum lycopersicum; D224N) (protein)
chain: MSSSSSCQPKTLRIGIIGFGPFAQFLAKTMMKQGHCIHVTSRSDYSELCTDLGILFFRDMGAFLESDNEVIMISTSILSLSQVVESIPFNCLKRPTLFVDVLSVKEHPKDVLLRMMPRECDLLCTHPMFGPESGKDGWEDLTFMYDMVRIRDQPLCSSFLHIFSSEGCKMLEMTCEKHDRLAAQSQFLTHTIGRILSEMEVEPTPIDTKGFQKLVQVKESSVKNSFDLFSGLFIHNRFARQQMKNLEVALEKTKEKLQERSKELQDPIISKF
notes: D224N by site-directed mutagenesis
Which results are given for B6?
Km [7]: 1.34 ± 0.48 mM; kcat [7]: 11.7 ± 0.2 s⁻¹; kcat/Km [7]: 8730 M⁻¹ s⁻¹; Km [8]: 2.31 ± 0.10 mM; kcat [8]: 2.4 ± 1 s⁻¹; kcat/Km [8]: 1040 M⁻¹ s⁻¹
